Several values for one entry are separate records, joined by “and”; a condition that tells them apart may be missing. Equal values may be shown once. Entries after “also recorded” stand apart in the source; their conditions may differ.
Legend:
[1] = ALL Taxol Compounds (1uM) PC3 Vs Liver Vs HT1080 Metabolism
Method: Table printed on a drawing sheet, Fig. 7 (Cont.)
Title: ALL Taxol Compounds (1uM) PC3 Vs Liver Vs HT1080 Metabolism
(§1) Footnotes: [diagonal hatching] Tumour (51-100%) / Liver (0-15%) / [horizontal hatching] Tumour & Liver (26-50%) / [cross hatching] Tumour (0-25%) / Liver (51-100%)
First reader's note: Continuation of Fig. 7; cell hatching classifies the values per the legend, and the title states 1uM while the head row states 1mM.

[2] = ALL Taxol Compounds (10uM) PC3 Vs Liver Vs HT1080 Metabolism
Method: Table printed on a drawing sheet, Fig. 8 (Cont.)
Title: ALL Taxol Compounds (10uM) PC3 Vs Liver Vs HT1080 Metabolism
as §1
First reader's note: Continuation of Fig. 8; the title prints 10uM while the head row prints 10mM, and cell hatching marks the classes given in the legend.

[3] = Top 3 Taxol Compounds (20uM) PC3 Vs LNCaP (x2) Vs PNT2 Cell-based assay
Method: Table printed on a drawing sheet, Fig. 9 (Cont.)
Title: Top 3 Taxol Compounds (20uM) PC3 Vs LNCaP (x2) Vs PNT2 Cell-based assay
Footnotes: [diagonal hatching] Tumour (51-100%) / Non-Tumour (0-15%) / [horizontal hatching] Tumour & Non-Tumour (26-50%) / [cross hatching] Tumour (0-25%) / Non-Tumour (51-100%)
First reader's note: Continuation of Fig. 9; cell shading (hatching) classifies the values by the legend, and all compounds were tested at 20uM in cell culture.

[4] = ALL Taxol Compounds (1uM) (ALL Tissue Metabolism)
Method: Table printed on a drawing sheet, Fig. 11
Title: ALL Taxol Compounds (1uM) (ALL Tissue Metabolism)
Footnotes: Tumour (51-100%) / Liver (0-15%) / Tumour & Liver (26-50%) / Tumour (0-25%) / Liver (51-100%)
First reader's note: Cell hatching codes the classes given in the legend; all compounds tested at 1uM in tissue homogenates.

PC3 xenografts = test: Anti-tumour efficacy study in PC3 xenografts; format: in vivo, mouse; conditions: PC3-bearing mice; single dose; ICT3205 20 mg/kg, paclitaxel 7 mg/kg (molar equivalent)
MMP14 = MMP14 (Homo sapiens, UniProt P50281); test: Cleavage by recombinant MMP14 in vitro (HPLC traces, mass spectrometry); format: biochemical; conditions: over 18 h
MMP 15 = MMP 15 (Homo sapiens, UniProt P51511); test: Cleavage by recombinant MMP15 in vitro (HPLC traces); format: biochemical; conditions: over 18 h
Chain of MMP 15 (P51511 132-669): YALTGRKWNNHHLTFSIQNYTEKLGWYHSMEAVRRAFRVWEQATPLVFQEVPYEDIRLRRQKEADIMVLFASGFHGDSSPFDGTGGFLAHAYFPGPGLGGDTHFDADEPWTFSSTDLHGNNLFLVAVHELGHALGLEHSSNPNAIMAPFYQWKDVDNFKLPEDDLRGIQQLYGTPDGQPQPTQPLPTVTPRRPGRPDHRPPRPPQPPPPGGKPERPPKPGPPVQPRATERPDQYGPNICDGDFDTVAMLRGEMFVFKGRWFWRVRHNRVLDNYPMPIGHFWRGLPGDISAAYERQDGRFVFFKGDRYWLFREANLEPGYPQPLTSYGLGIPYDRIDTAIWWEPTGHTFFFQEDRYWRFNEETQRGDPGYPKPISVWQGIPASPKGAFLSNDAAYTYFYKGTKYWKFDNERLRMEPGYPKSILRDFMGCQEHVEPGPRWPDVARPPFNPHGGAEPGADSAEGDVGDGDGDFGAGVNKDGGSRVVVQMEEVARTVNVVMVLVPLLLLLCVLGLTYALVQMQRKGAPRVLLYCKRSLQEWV

[5] = system: prostate tumour-associated MT-MMPs; test: Incubation in tissue culture media containing prostate tumour cells; format: cell-based; conditions: incubation at 20 um in tissue culture media with cells; compared to other agents tested
[6] = Incubation with PC3 tumour homogenate (tumour activation); format: in vitro ADME
From the text: A paclitaxel (Taxol) standard is shown in the top trace,
(§2) The relative importance of individual amino acids within the MT-MMP peptide recognition sequence has been investigated following extensive ex vivo metabolic studies. These studies employed tissue homogenates to assess activation of prodrug conjugates in tumour (PC-3) tissues and stability in normal tissues (liver kidney lung).

[7] = Metabolism in LNCaP prostate cancer cell line; format: in vitro ADME
[8] = Incubation with normal tissue homogenates (normal tissue stability); format: in vitro ADME
Method: Parent molecules are incubated with tissue homogenate and half lives calculated Green indicates acceptable whereas red is unacceptable.
as §2

[9] = In vivo murine pharmacokinetic study monitoring paclitaxel release in tumour, tissues and plasma
From the text: The early peak drug concentrations associated with paclitaxel dosing are removed by administration of prodrug. A 10-fold increase in tumour concentration of paclitaxel is observed following administration as ICT3205.
FIG. 21 provides a table highlighting in greater detail the disparity of distribution between normal tissues and tumour tissues for paclitaxel alone, parent ICT3205 and paclitaxel release from the prodrug.

[10] = Systemic toxicity by mouse body weight; format: in vivo; conditions: mice
[11] = PK study (PC3) ICT3205 - 15mg/kg (5mg/kg taxol) IP Almost undetectable concentrations of ICT3205 in tumour
Method: Table printed on a drawing sheet, Fig. 21
Title: PK study (PC3) ICT3205 - 15mg/kg (5mg/kg taxol) IP Almost undetectable concentrations of ICT3205 in tumour
Footnotes: Tumour AUC ↑ x10-fold Tumour Cmax ↑ x10-fold } For ACTIVE Taxol / ALSO Tissue AUC ↓ Tissue Cmax ↓ x10-fold } For ACTIVE Taxol
The patent's description of the figure: FIG. 21 provides a table highlighting in greater detail the disparity of distribution between normal tissues and tumour tissues for paclitaxel alone, parent ICT3205 and paclitaxel release from the prodrug.
First reader's note: The ratio cells span the three analyte rows of each tissue and are repeated in each row; the first PC3 row is printed as 'ICT2305' (boxed) and has its own empty Cmax Ratio cell.

For MeO (PEG) [ICT3200], the “Tissue Homogenate Metabolism (1 µM) | HT1080 Stability (% loss)” value [1] was 72 % loss, the “Tissue Homogenate Metabolism (1 µM) | HT1080 Taxol Release (% gain)” value [1] was 29 % gain and the “Tissue Homogenate Metabolism (1 µM) | Liver Stability (% loss)” value [1] was 5 % loss. The “Tissue Homogenate Metabolism (1 µM) | Liver Taxol Release (% gain)” value [1] was 5 % gain, the “Tissue Homogenate Metabolism (1 µM) | PC3 Stability (% loss)” value [1] was 82 % loss and the “Tissue Homogenate Metabolism (1 µM) | PC3 Taxol Release (% gain)” value [1] was 36 % gain. For the same molecule, the “Tissue Homogenate Metabolism (10 µM) | HT1080 Stability (% loss)” value [2] was 61 % loss, the “Tissue Homogenate Metabolism (10 µM) | HT1080 Taxol Release (% gain)” value [2] was 30 % gain and the “Tissue Homogenate Metabolism (10 µM) | Liver Stability (% loss)” value [2] was 0 % loss. The “Tissue Homogenate Metabolism (10 µM) | Liver Taxol Release (% gain)” value [2] was 8 % gain, the “Tissue Homogenate Metabolism (10 µM) | PC3 Stability (% loss)” value [2] was 80 % loss and the “Tissue Homogenate Metabolism (10 µM) | PC3 Taxol Release (% gain)” value [2] was 36 % gain. For the same molecule, the “Cell Culture Metabolism (20uM) | LNCaP (2) Stability (% loss)” value [3] was 62 % loss, the “Cell Culture Metabolism (20uM) | LNCaP (2) Taxol Release (% gain)” value [3] was 51 % gain and the “Cell Culture Metabolism (20uM) | LNCaP Stability (% loss)” value [3] was 61 % loss. For the same molecule, the “Cell Culture Metabolism (20uM) | LNCaP Taxol Release (% gain)” value [3] was 62 % gain, the “Cell Culture Metabolism (20uM) | PC3 Stability (% loss)” value [3] was 89 % loss and the “Cell Culture Metabolism (20uM) | PC3 Taxol Release (% gain)” value [3] was 49 % gain. The “Cell Culture Metabolism (20uM) | PNT2 Stability (% loss)” value [3] was 60 % loss, the “Cell Culture Metabolism (20uM) | PNT2 Taxol Release (% gain)” value [3] was 22 % gain and the “Tissue Homogenate Metabolism (1uM) | Kidney Stability (% loss)” value [4] was 32 % loss. The “Tissue Homogenate Metabolism (1uM) | Kidney Taxol Release (% gain)” value [4] was 25 % gain, the “Tissue Homogenate Metabolism (1uM) | Lung Stability (% loss)” value [4] was 64 % loss and the “Tissue Homogenate Metabolism (1uM) | Lung Taxol Release (% gain)” value [4] was 31 % gain.
In the case of `CC(=O)O[C@H]1C(=O)[C@@]2(C)[C@H]([C@H](OC(=O)c3ccccc3)[C@]3(O)C[C@H](OC(=O)[C@H](O)[C@@H](NC(=O)c4ccccc4)c4ccccc4)C(C)=C1C3(C)C)[C@]1(OC(C)=O)CO[C@@H]1C[C@@H]2O` [paclitaxel, Paclitaxel, reference compound], the “anti-tumour effect (growth delay)” value (PC3 xenografts) is reported as “no significant anti-tumour effect; also recorded: no efficacy”.
For `CC(=O)O[C@H]1C(=O)[C@@]2(C)C([C@H](OC(=O)c3ccccc3)[C@]3(O)C[C@H](OC(=O)[C@H](OC(=O)OCc4ccc(NC(=O)[C@H](CC(C)C)NC(=O)[C@H](Cc5ccc(O)cc5)NC(=O)[C@H](CCc5ccccc5)NC(=O)CNC(=O)[C@H](CCCNC(N)=O)NC(=O)[C@H](CO)NC(=O)[C@H](CCCNC(=N)N)NC(=O)CCNC(=S)Nc5ccc6c(c5)C(=O)OC65c6ccc(O)cc6Oc6cc(O)ccc65)cc4)[C@@H](NC(=O)c4ccccc4)c4ccccc4)C(C)=C1C3(C)C)[C@]1(OC(C)=O)CO[C@@H]1C[C@@H]2O` (some centres unmarked) [ICT3205], the “cleavage by recombinant MMP14” value (MMP14) was “cleavage”, the “cleavage by recombinant MMP 15” value (MMP 15) was “cleavage” and the “cleavage by prostate tumour-associated MT-MMPs and release of paclitaxel” value [5] was “superior cleavage”. For the same molecule, the “metabolism (disappearance, activation) of conjugate in PC3” value ([6]; PC3 prostate cancer cell line homogenate) was “disappearance; also recorded: metabolised equally quickly; also recorded: metabolised rapidly”, the “paclitaxel release in PC3 tumour” value ([6]; PC3 tumour homogenate) was “differential release of free paclitaxel; also recorded: appearance of paclitaxel” and the “metabolism of conjugate in LNCaP” value [7] was “metabolised equally quickly”. For the same molecule, the “stability in kidney and liver homogenates” value ([8]; kidney and liver, over other molecules) was “marked increased stability”, the “appearance of paclitaxel in liver homogenate” value ([8]; liver homogenate) was “not in the liver” and the “conjugate stability in liver homogenate” value ([8]; liver homogenate) was “relative stability”. For the same molecule, the “stability in normal tissue homogenates” value ([8]; liver, kidney, lung) was “stable; also recorded: long in vitro ‘half-life’ and stability”, the “levels of paclitaxel released from ICT3205 in heart” value ([9]; heart) was < 500 nM and the “AUC ratio of paclitaxel released from ICT3205 compared to paclitaxel administered alone, normal tissues” value ([9]; normal tissues, AUC in uM.h, ICT3205 20 mg/kg vs paclitaxel 7 mg/kg) was 0.05-0.99. The “Cmax ratio of paclitaxel released from ICT3205 vs paclitaxel alone, other tissues” value ([9]; other tissues, ICT3205 20 mg/kg vs paclitaxel 7 mg/kg) was 0.02-0.19, the “levels of paclitaxel released from ICT3205 in plasma” value ([9]; plasma) was “below detectable levels” and the “AUC ratio of paclitaxel released from ICT3205 compared to paclitaxel administered alone, tumour” value ([9]; tumour, AUC in uM.h, ICT3205 20 mg/kg vs paclitaxel 7 mg/kg) was 16.2. For the same molecule, the “Cmax ratio of paclitaxel released from ICT3205 vs paclitaxel alone, tumour” value ([9]; tumour, ICT3205 20 mg/kg vs paclitaxel 7 mg/kg) was 9.77, the “increase in tumour concentration of paclitaxel following administration as ICT3205” value ([9]; tumour, versus equimolar paclitaxel alone) was 10 fold and the “anti-tumour effect (growth delay)” value (PC3 xenografts) was “highly significant growth delay; also recorded: superior anti-tumour effects”. The “toxicity and adverse systemic effects as indicated by mouse body weight” value [10] was “no toxicity and no adverse systemic effects”, the “Tissue Homogenate Metabolism (1 µM) | HT1080 Stability (% loss)” value [1] was 60 % loss and the “Tissue Homogenate Metabolism (1 µM) | HT1080 Taxol Release (% gain)” value [1] was 58 % gain. The “Tissue Homogenate Metabolism (1 µM) | Liver Stability (% loss)” value [1] was 12 % loss, the “Tissue Homogenate Metabolism (1 µM) | Liver Taxol Release (% gain)” value [1] was 19 % gain and the “Tissue Homogenate Metabolism (1 µM) | PC3 Stability (% loss)” value [1] was 77 % loss. For the same molecule, the “Tissue Homogenate Metabolism (1 µM) | PC3 Taxol Release (% gain)” value [1] was 85 % gain, the “Tissue Homogenate Metabolism (10 µM) | HT1080 Stability (% loss)” value [2] was 48 % loss and the “Tissue Homogenate Metabolism (10 µM) | HT1080 Taxol Release (% gain)” value [2] was 55 % gain. For the same molecule, the “Tissue Homogenate Metabolism (10 µM) | Liver Stability (% loss)” value [2] was 12 % loss, the “Tissue Homogenate Metabolism (10 µM) | Liver Taxol Release (% gain)” value [2] was 21 % gain and the “Tissue Homogenate Metabolism (10 µM) | PC3 Stability (% loss)” value [2] was 54 % loss. The “Tissue Homogenate Metabolism (10 µM) | PC3 Taxol Release (% gain)” value [2] was 60 % gain, the “Cell Culture Metabolism (20uM) | LNCaP (2) Taxol Release (% gain)” value [3] was 81 % gain and the “Cell Culture Metabolism (20uM) | LNCaP Stability (% loss)” value [3] was 100 % loss. For the same molecule, the “Cell Culture Metabolism (20uM) | LNCaP Taxol Release (% gain)” value [3] was 73 % gain, the “Cell Culture Metabolism (20uM) | PC3 Stability (% loss)” value [3] was 84 % loss and the “Cell Culture Metabolism (20uM) | PC3 Taxol Release (% gain)” value [3] was 49 % gain. The “Cell Culture Metabolism (20uM) | PNT2 Stability (% loss)” value [3] was 21 % loss, the “Cell Culture Metabolism (20uM) | PNT2 Taxol Release (% gain)” value [3] was 12 % gain and the “Tissue Homogenate Metabolism (1uM) | Kidney Stability (% loss)” value [4] was 4 % loss. For the same molecule, the “Tissue Homogenate Metabolism (1uM) | Kidney Taxol Release (% gain)” value [4] was 4 % gain, the “Tissue Homogenate Metabolism (1uM) | Lung Stability (% loss)” value [4] was 19 % loss and the “Tissue Homogenate Metabolism (1uM) | Lung Taxol Release (% gain)” value [4] was 12 % gain. The “Tmax” value [11] was 4 h and 2 h.
